Data as given in the DeepSol protein solubility set.

Assay: soluble on expression in E. coli; label from the status in PepcDB or PDB records

Sequence	soluble on expression in E. coli
MRGSHHHHHHGMASMTGGQQMGRDLYDDDDKDHPFTMADQAPFDTDVNTLTRFVMEEGRKARGTGELTQLLNSLCTAVKAISSAVRKAGIAHLYGIAGSTNVTGDQVKKLDVLSNDLVMNMLKSSFATCVLVSEEDKHAIIVEPEKRGKYVVCFDPLDGSSNIDCLVSVGTIFGIYRKKSTDEPSEKDALQPGRNLVAAGYALYGSATMLVLAMDCGVNCFMLDPAIGEFILVDKDVKIKKKGKIYSLNEGYAKDFDPAVTEYIQRKKFPPDNSAPYGARYVGSMVADVHRTLVYGGIFLYPANKKSPNGKLRLLYECNPMAYVMEKAGGMATTGKEAVLDVIPTDIHQRAPVILGSPDDVLEFLKVYEKHSAQ	soluble
MSSDRIVITGVAINTPIGDTLDLVGNNLLSGKSAIGYWRNFDTSNIYSKIGGQIPEYDIEGKLHAFSNRIPDIVLSRAEKVFKQTTKGVQLSVLMAMEAWLDAGLFEHIIDPFDCGIICGGHNLSDKYLLDQQKIFSDEPEFIDAFSGLNSLDTDHSSSVAQVLNTKGFAYLVGGTCATGNIAIQTAINAIKVDKKQVVAVVCPMASFHPMMLHSLTILEAICYSQYQDTPTKASRPYDINRSGFLPSEGGAVLIFEQAEHAKNRGAKIYAELLGASVNSDANHLGDPSHEGQVRVIQDVLKKCNISPEQVDYVSAHATSTKLGDIVELKSIKRVFGSHAEKLIINAPKSLLGHTMWASGVVEAAIAIWQMRQGEFHQSHNIETLDPAVELNVCASGNVKKEVNIFLNNSFGMGGINSASLFSRYHG	not soluble
QHLNALMNKEILGKKPGKKKKDKTKRPVLYVIDFSGDIKATQVEQLRDEVTSVLSIAKPEDEVLVRLESPGGAVNGYGLAASQLQRIRDKKIPLTVSIDKMAASGGYLMACVANKIIAAPFAIIGSIGVVAQIPNFHRWLKKNNIDVELLTAGEYKRTLTLFAENTEKGRKKFQEDLEKIHTAFREYVLKNRSQLDIDKVATGEHWIAKDAFDLRLVDKLATSDE	not soluble
MGSDKIHHHHHHMAHPPQIRIPATYLRGGTSKGVFFRLEDLPESCRVPGEARDRLFMRVIGSPDPYAAHIDGMGGATSSTSKCVILSKSSQPGHDVDYLYGQVSIDKPFVDWSGNCGNLSTGAGAFALHAGLVDPARIPEDGICEVRIWQANIGKTIIAHVPVSGGQVQETGDFELDGVTFPAAEIVLEFLDPSDDGEDGGAIFPTGNLVDDLEVPGVGTFKATMINAGIPTVFVNAEEIGYRGTELREEINGDPQQLARFERIRVAGALRMGLIKTPEEAATRQHTPKIAFVAPPRDYRTASGKLVAAGDIDLLVRALSMGKLHHAMMGTAAVAIGTAAAIPGTLVNLAAGGGERSAVRFGHPSGTLRVGAEASQANGEWTVTKAIMSRSARILMEGWVRVPGDAF	not soluble
MGSDKIHHHHHHMVIDSIRSSSTGPRDAPGKRLAVGISLFARDGQAIWENGIHQNIAFLAMMLKQSDRIGPVYFLNGGDAKALPAGLDLGGLDVPLVQPRDVSHALDVVIEMGAQLPVDWLKHMKALGKKLVVCFVGHTYSGLTETPMFNRPSGHIFNGGPFDEVWILPKSEKIDAPLLRTLTRAPVHVVPHIWSPYFIERRARELEAAGLRFGYAPGRAKWRLSILEPNISVVKTCHYPMLAADEFHRAQPDAVEHLFVVNSLHMKEHPTFVHFANSLDLVREHKATFEPRIDLPSFLAQHGDAVISHQWENPQNYLYYDVLYGGYPLVHNSPMLGDAGYYYPEFDSAAGGRALQHAWRHHDAHLDDYRRHADALLQAVSIDNRRNLDAYVARLFA	not soluble
MSLQTKHIDDLKEALMCQRNNDDKLEDLVGKIVNDYHTYAGKRSELSYRCCAHYFAPSWNTPIENSMLWMGGCRPSSFIRLIYALCGSQAETQLSQYLLKIDDDFDINHGGFMSDLTATQLGKLNDLHLEVIKKEDKITKTSANFQDDVADLPIADVVHADVAVEDALDKHEEGMAVLLAEADKLRFETLRKIVDVVTPLQAVEFLLAGKRLQLSLHDRGRVRADVCGGVGGAAV	soluble
SPSETLWEIAKAEVEKRGINGSEGDGAEIAEKFVFFIGSKNGGKTTIILRCLDRDEPPKPTLALEYTYGRRAKGHNTPKDIAHFWELGGGTSLLDLISIPITGDTLRTFSLVLVLDLSKPNDLWPTMENLLQATKSHVDKVIMKLGKTNAKAVSEMRQKIWNNMPKDHPQDHELIDPFPVPLVIIGSKYDVFQDFESEKRKVICKTLRFVAHYYGASLMFTSKSEALLLKIRGVINQLAFGIDKSKSICVDQNKPLFITAGLDSFGQIGSPPVPENDIGKLHAHSPMELWKKVYEKLFPPKSINTLKDIKDPARDPQYAENEVDEMRIQKDLELEQYKRSSSKSWKQIELDS	soluble
MRATVSGKTTTILPLLSKLIVIVIKSTSIHCSTLTSSGLFDSTAPRVFKNLVNYGGDMWFYMKPYPSNGKSGSQQMENVYQGLKSAQIKFSHITQHGISVQFFTSQSNWHSITNNNRSFSSYKLWWAHTNGAGNGGATSPNFEGFVSFGGWTSSSLVGKEYARQVQECGVTVNKYVYVK	not soluble
MGSDKIHHHHHHMLDKLWKKKNSMMVGIDIGSHSAKAVLLGQGNEGFIIEDFAIEPMPRGSVVDREIQDIEAVGAVIAKLRKKISAKATDAAAAVSGQTVITKLIYMDVALTEDELASQIEIEADSLIPFPLDEVSLDFETLDVNESDPSKVNVLLSAARTESIEARVAALDAGDFHAKVIDVESYAVGRAYDLCLTQLPDDAKDKVVAIVDIGSTVTLFSATDAGKHIYSRDQMFGGEQYTRSIVSYYNKSFEQAEEAKTSNDLPPNYTFEVLAPFHTVLMQQIRRAIQMFLTTSGQNKVDYLLISGGTAALEGIESLLTEELGIHTVIANPFNDMSCGESIEQAELANVAPQLMVATGLALRSFTPWHI	not soluble
MTYTGSIRCEGDTWDLASSVGATATMVAAARAMATRAANPLINDQFAEPLVRAVGVDVLTRLASGELTASDIDDPERPNASMVRMAEHHAVRTKFFDEFFMDATRAGIRQVVILASGLDSRAYRLAWPAQTVVYEIDQPQVMEFKTRTLAELGATPTADRRVVTADLRADWPTALGAAGFDPTQPTAWSAEGLLRYLPPEAQDRLLDNVTALSVPDSRFATESIRNFKPHHEERMRERMTILANRWRAYGFDLDMNELVYFGDRNEPASYLSDNGWLLTEIKSQDLLTANGFQPFEDEEVPLPDFFYVSARLQRKHRQYPAHRKPAPSWRHTACPVNELSKSAAYTMTRSDAHQASTTAPPPPGLTG	soluble
MCSLSAIMLLPTKLKPAYSDKRSNSSSSSSLFFNNRRSKKKNQSIVPVARLFGPAIFESSKLKVLFLGVDEKKHPSTLPRTYTLTHSDITAKLTLAISQSINNSQLQGWANRLYRDEVVAEWKKVKGKMSLHVHCHISGGHFLLDLFAKFRYFIFCKELPVVLKAFVHGDGNLLNNYPELQEALVWVYFHSNVNEFNKVECWGPLWEAVSPDGHKTETLPEARCADECSCCFPTVSSIPWSHSLSNEGVNGYSGTQTEGIATPNPEKL	soluble
METPIAEELAKKQKSISVAEFFEKNRQILGFDSAPRSLITTVKEAVDNALDACEEAGILPDILVQVERTGPDYVTVIIEDNGPGIVREQIPKVFAKLLYGSRFHALKQSRGQQGIGISAAVLYAQMTAGRHTKILSKTSPTAPAHYYELMINTSTNEPDILVDEVRDWFRPHGTQIELEMRAAYVKGRRQSIYEYLKATAIVNPHARITLIDPDGNEEVFERATDKMPEPAEEILPHPEGIELGTLMKMLHYTERQKLAPFLRYSFCKIGLLTAEEICKAAGLDPEIDPHALGRHEARKLIEAFEKVKIMAPPTDCLSPIGEDLIYRGLEKETTVDFIATSTRKPAVYSGNPFVVEVGMAYGGNLPKEEKISIMRFANRVPLLYQQGGCVTTHAVEDIKWKQYGLNQPGGGIPVGPVILLIHVASINVPFTSESKDAIADIPVIKEEIDLAIKEVARKLKHYLSKQSNLKKRREKEIIITKVLPKLAAKVAHVLEKDVPDINPVVAKIMGNLLVHRVIKNNGDGTVDVAIKVKNFGTSAYSFRVHEMLPCKVSGAKPEPKVVTMGNDYDYVWDISASAGSSKVLSYKIESASEEELQKLPQLIVEGIEEELVTGAKAFKGV	soluble
MASSSNFMAPPPKMNKTSSMNSLRKTLGLKKPNNGELSMVPSRPIVSPTLSSPLQGSGAAPLEKDYHSLEYRLTHGHWRIFNSKSVFGNKDASVLVFDKKSNVKAPPKLGKSKTYSMFDLIKYETQQLMGLIHPRILHMEHSLEETKDYISFATEQIFGNLENVVTDESLDRLEIKLGVLQIIDGMSYLHNSAKMLHGNLTPDAIYVTATKTWKIGGFSFAVNAKEPNCYPCYPWTKKLPPCLQPDLDFLAPENLAPGQTTVTSAADVFSLGVLICWIYAGGKRLIDAKSNLETYHIVVGQLDAALQCISNELGPNLKDSMAKVLSLDVEVRPTVQLLSLIKHFDDPCLSALRQLDDIAQVFDPSQKSHFLSQTLNVAIPHISESVWFNRVLPRFNEQLLELPEMYYPITKPLFHILEHCESHNIHKMKPWIRKLMEAAPHNKLLRAFILENMSALFRRLSDEFVEDKCLDVIILSLKSEDTSLQSSAVRGLPHVAEYLPVGFITKKLIPAIMGLPPFLHENVPRQLDLLAALAALSDRCDVSSIVHLFGCISLCNSSHPVIVHAKSRIVQRLVMRDPNRLKDSQLLSIHLLNPLVNGLACKDLSTFSCAHFDDVLSSVRILLDVLEQRRYEMEDRQEHKQSNHHLGLNRLGNRRVSMSSTNLPRVMISAARPSFSSDSRKMSFLSADGRLEDRGSRRESRDSRGSLESDMSIRIGNGSDISDDSCFSSHSAKGRRQSWLDGYGHSVSLEQNTNGFLETTSRNLGDRNSMNFKQRNARASERRARTRSPNAELDPQREQPPARPNSFTNLGHNIVLTYRNLLYKDHT	not soluble
GPGSMPSKRATRVQKLHEGTGDDNLPVFSIFIEKEGEGQYGRIDIEIFVNKVPKSCEIFLHSCPAALTGDKRVSKPSLVRQHRFLRLTNEGLQVGERPVSRLVSLSDIENEIGRVNHGIGVVSLCRSSNTFDESFFFCLTDNRTELESLDKRHTAFGRVVYGLELLFLLRDALIPYVKEGCVIEGSPYAISDILPKAAT	soluble
MSSENDFVEFSSMFERIIQGRGDGLSRFLPVIVALAAREDDDDQGSTDQTTRRGDPLSPRFVMIGSRSGLDDFFSDGGKQGRSPALKSEVENMPRVVIGEDKEKYGGSCAICLDEWSKGDVAAEMPCKHKFHSKCVEEWLGRHATCPMCRYEMPVEEVEEEKKIGIWIGFSINAGDRRN	not soluble
MGSDKIHHHHHHMNILVTGGAGFIGSHVVDKLIENGYGVIVVDNLSSGKVENLNRNALFYEQSIEDEEMMERIFSLHRPEYVFHLAAQASVAISVREPARDAKTNIIGSLVLLEKSIKYGVKKFIFSSTGGAIYGENVKVFPTPETEIPHPISPYGIAKYSTEMYLEFFAREYGLKYTVLRYANVYGPRQDPYGEAGVVAIFTERMLRGEEVHIFGDGEYVRDYVYVDDVVRANLLAMEKGDNEVFNIGTGRGTTVNQLFKLLKEITGYDKEPVYKPPRKGDVRKSILDYTKAKEKLGWEPKVSLEEGLKLTVEYFRKTLE	not soluble
MFDPKKFIDEAVEEIKQQISDRKAIIALSGGVDSSVAAVLTHKAIGDKLTAVFVDTGLMRKGEREEVEKTFRDKLGLNLIVVDAKDRFLNALKGVTDPEEKRKIIGKLFIDVFEEIAEDIKAEVLVQGTIAPDWIETQGKIKSHHNVALPHGMVLEVVEPLRELYKDEVRLLAKELGLPDSIVYRQPFPGPGLAVRVLGEVTEEKLNICREANAIVEEEVKKANLDKDLWQYFAVVLDCKATGVKGDEREYNWIVALRMVKSLDAMTAHVPEIPFDLLKRISKRITSEIPNVARVVFDITDKPPATIEFE	soluble
